Where two headings read alike, the source gives them in different places.
Legend:
exendin-P5 [1] = assay: radioligand competition binding on whole cells; conditions: parent: est. 0; read off a plot
exendin-P5 [2] = assay: radioligand competition binding on whole cells; conditions: parent: est. 0; read off a plot; remark: listed apart in the source
[3] = molecular target: cMyc-GLP-1R Y148A (human) (UniProt P43220)
[4] = molecular target: cMyc-GLP-1R K197A (human) (UniProt P43220)
[5] = molecular target: GLP-1R K202A (Homo sapiens)
[6] = molecular target: GLP-1R E138A (Homo sapiens)
[7] = molecular target: GLP-1R S206A (Homo sapiens)
[8] = molecular target: GLP-1R L144A (Homo sapiens)
[9] = molecular target: GLP-1R S193A (Homo sapiens)
[10] = molecular target: cMyc-GLP-1R Y148A (human) (UniProt P43220); remark: listed apart in the source
[11] = molecular target: GLP-1R Q210A (Homo sapiens)
[12] = molecular target: GLP-1R H212A (Homo sapiens)
[13] = molecular target: cMyc-GLP-1R Y152A (human) (UniProt P43220)
[14] = molecular target: GLP-1R P137A (Homo sapiens)
[15] = molecular target: GLP-1R L142A (Homo sapiens)
[16] = molecular target: cMyc-GLP-1R R190A (human) (UniProt P43220)
[17] = molecular target: GLP-1R Y205A (Homo sapiens)
[18] = molecular target: GLP-1R D198A (Homo sapiens)
[19] = molecular target: GLP-1R M204A (Homo sapiens)
[20] = molecular target: wild-type cMyc-GLP-1R (human) (UniProt P43220)
[21] = molecular target: GLP-1R Q211A (Homo sapiens)
[22] = molecular target: GLP-1R V194A (Homo sapiens)
[23] = molecular target: GLP-1R L141A (Homo sapiens)
[24] = molecular target: GLP-1R Y145A (Homo sapiens)
[25] = molecular target: GLP-1R L201A (Homo sapiens)
exendin-4, P26349 = assay: radioligand competition binding on whole cells; conditions: chain shown with the change;; parent: est. 0; read off a plot

wild-type cMyc-GLP-1R (from UniProt P43220) W297A
log10 ratio (exendin-P5 [1]): -1.2 pIC50 ΔWT
log10 ratio (exendin-P5 [2]): -1.3 pIC50 ΔWT

wild-type cMyc-GLP-1R (from UniProt P43220) E387A
log10 ratio (exendin-P5 [1]): -1.1 pIC50 ΔWT
log10 ratio (exendin-P5 [2]): -1.1 pIC50 ΔWT

exendin-P5
IC50 (GLP-1R S193A): 75.9 nM
IC50 (GLP-1R Y145A): 46.8 nM
IC50 (GLP-1R Q210A): 501 nM
IC50 (GLP-1R L141A): 102 nM
IC50 (GLP-1R P137A): 437 nM
IC50 [3]: 135 nM
IC50 (GLP-1R L201A): 251 nM
IC50 (GLP-1R L144A): 257 nM
IC50 (GLP-1R S206A): 269 nM
IC50 (GLP-1R Q211A): 240 nM
IC50 (GLP-1R M204A): 67.6 nM
IC50 (GLP-1R E138A): 60.3 nM
IC50 (GLP-1R K202A): 170 nM
IC50 (GLP-1R L142A): 537 nM
IC50 (GLP-1R V194A): 182 nM
IC50 (GLP-1R D198A): 191 nM
IC50 (GLP-1R Y205A): 69.2 nM
IC50 (GLP-1R H212A): 282 nM

exendin-4 (from UniProt P26349 48-87)
IC50 [4]: 25.1 nM
IC50 [5]: 1.91 nM
IC50 [6]: 0.661 nM
IC50 [7]: 2.19 nM
IC50 [8]: 0.741 nM
IC50 [9]: 1.38 nM
IC50 [10]: 7.76 nM
IC50 [11]: 2.09 nM
IC50 [12]: 0.479 nM
IC50 [13]: 38 nM
IC50 [14]: 3.89 nM
IC50 [15]: 0.692 nM
IC50 [16]: 407 nM
IC50 [17]: 8.91 nM
IC50 [18]: 162 nM
IC50 [19]: 17.8 nM
IC50 [20]: 0.891 nM
IC50 [21]: 4.37 nM
IC50 [22]: 11.7 nM
IC50 [23]: 4.9 nM
IC50 [24]: 0.617 nM
IC50 [25]: 3.47 nM

wild-type cMyc-GLP-1R (from UniProt P43220) E364A
log10 ratio (exendin-P5 [1]): -1 pIC50 ΔWT
log10 ratio (exendin-P5 [2]): -0.95 pIC50 ΔWT

B1: wild-type cMyc-GLP-1R, P43220 K197A (protein)
chain: RPQGATVSLWETVQKWREYRRQCQRSLTEDPPPATDLFCNRTFDEYACWPDGEPGSFVNVSCPWYLPWASSVPQGHVYRFCTAEGLWLQKDNSSLPWRDLSECEESKRGERSSPEEQLLFLYIIYTVGYALSFSALVIASAILLGFRHLHCTRNYIHLNLFASFILRALSVFIADAALKWMYSTAAQQHQWDGLLSYQDSLSCRLVFLLMQYCVAANYYWLLVEGVYLYTLLAFSVLSEQWIFRLYVSIGWGVPLLFVVPWGIVKYLYEDEGCWTRNSNMNYWLIIRLPILFAIGVNFLIFVRVICIVVSKLKANLMCKTDIKCRLAKSTLTLIPLLGTHEVIFAFVMDEHARGTLRFIKLFTELSFTSFQGLMVAILYCFVNNEVQLEFRKSWERWRLEHLHIQRDSSMKPLKCPTSSLSSGATAGSSMYTATCQASCS
log10 ratio (exendin-4, P26349): -1.5 pIC50 ΔWT

B2: wild-type cMyc-GLP-1R, P43220 R190A (protein)
chain: RPQGATVSLWETVQKWREYRRQCQRSLTEDPPPATDLFCNRTFDEYACWPDGEPGSFVNVSCPWYLPWASSVPQGHVYRFCTAEGLWLQKDNSSLPWRDLSECEESKRGERSSPEEQLLFLYIIYTVGYALSFSALVIASAILLGFRHLHCTRNYIHLNLFASFILAALSVFIKDAALKWMYSTAAQQHQWDGLLSYQDSLSCRLVFLLMQYCVAANYYWLLVEGVYLYTLLAFSVLSEQWIFRLYVSIGWGVPLLFVVPWGIVKYLYEDEGCWTRNSNMNYWLIIRLPILFAIGVNFLIFVRVICIVVSKLKANLMCKTDIKCRLAKSTLTLIPLLGTHEVIFAFVMDEHARGTLRFIKLFTELSFTSFQGLMVAILYCFVNNEVQLEFRKSWERWRLEHLHIQRDSSMKPLKCPTSSLSSGATAGSSMYTATCQASCS
log10 ratio (exendin-4, P26349): -2.6 pIC50 ΔWT

B3: wild-type cMyc-GLP-1R, P43220 W297A (protein)
chain: RPQGATVSLWETVQKWREYRRQCQRSLTEDPPPATDLFCNRTFDEYACWPDGEPGSFVNVSCPWYLPWASSVPQGHVYRFCTAEGLWLQKDNSSLPWRDLSECEESKRGERSSPEEQLLFLYIIYTVGYALSFSALVIASAILLGFRHLHCTRNYIHLNLFASFILRALSVFIKDAALKWMYSTAAQQHQWDGLLSYQDSLSCRLVFLLMQYCVAANYYWLLVEGVYLYTLLAFSVLSEQWIFRLYVSIGWGVPLLFVVPWGIVKYLYEDEGCATRNSNMNYWLIIRLPILFAIGVNFLIFVRVICIVVSKLKANLMCKTDIKCRLAKSTLTLIPLLGTHEVIFAFVMDEHARGTLRFIKLFTELSFTSFQGLMVAILYCFVNNEVQLEFRKSWERWRLEHLHIQRDSSMKPLKCPTSSLSSGATAGSSMYTATCQASCS
log10 ratio (exendin-4, P26349): -1.5 pIC50 ΔWT
